According to article PMC8126939, “The TBC1D31/praja2 complex controls primary ciliogenesis through PKA‐directed OFD1 ubiquitylation” (The EMBO Journal, 2021):

B1: peptide of the C-terminus segment of TBC1D31 [human] / GST-praja2_(530–570) [modified: fluorescent dye on primary amines (NHS-ester labelling); fluorescent dye on primary amines (NHS-ester labelling)] [human] (parent complex)
chain 1: WDTTGQNLIKKVRNLRQRLTARARHRCQTPHLLAA
chain 2: LDGNNNLEDDSSVSEDLDVDWSLFDGFADGLGVAEAISYVD

Variants of: B1
Test: microscale thermophoresis (MST); parent: 3.7e+04 nM

Kd [µM] | Variant
~65 | chain 1 R13A, chain 1 R16A
